These binders were tested against T1, HLA-A*02:01 (human) (assay: UV peptide-exchange ELISA).
T1 construct: MHC class I monomer of the UV-ligand exchange assay; also called peptide-receptive MHC molecules; MHC class I
In short: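 Peptide-MHC complexes formed by UV-mediated exchange of a UV-cleavable peptide for the test peptide; exchange yield quantified by β2m ELISA. Diluted 100-fold, captured on streptavidin-coated plates 1 h at 37 °C, detected with HRP anti-β2m and TMB at 450 nm against refolded HLA-A*02:01 monomer standards (15-500 ng/ml).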

SLYDVSRMYV and NLQVTQPTV cannot be ordered by peptide exchange yield: no less than 75% for the first, 50 to 75% for the second.

ALAKPPVVSV and IILPVEVEV fall in the same range of peptide exchange yield: 50 to 75% for the first, 50 to 75% for the second.

NLLAHIWAL and GLWGTVVNI fall in the same range of peptide exchange yield: 50 to 75% for the first, 50 to 75% for the second.

FLDMTNWNL and ILSQPTPSL cannot be ordered by peptide exchange yield: no less than 75% for the first, 50 to 75% for the second.

LLLTKPTEA and ILLNPAYDVYL fall in the same range of peptide exchange yield: 50 to 75% for the first, 50 to 75% for the second.

VLAFENPQV and ALSEKLARL fall in the same range of peptide exchange yield: 50 to 75% for the first, 50 to 75% for the second.

ELLEGSEIYL and YLLEEKIASL fall in the same range of peptide exchange yield: 50 to 75% for the first, 50 to 75% for the second.

SLYSALQQA and FIDKFTPPV cannot be ordered by peptide exchange yield: 50 to 75% for the first, no less than 75% for the second.

Compared with ATPMPTPSV, LVYEAPETV is higher in peptide exchange yield: 20 to 50% for the first, 50 to 75% for the second.

SLDLFNCEV and ALEDRVWEL cannot be ordered by peptide exchange yield: no less than 75% for the first, 50 to 75% for the second.

VLVQVSPSL and LLAELPASVHA fall in the same range of peptide exchange yield: 50 to 75% for the first, 50 to 75% for the second.

SLASIHVPL and VLWELAHLPTL fall in the same range of peptide exchange yield: 50 to 75% for the first, 50 to 75% for the second.

First: YMYEKESEL
Second: YLIEPDVELQRI
The peptide exchange yield of the first is lower: 20 to 50% for the first, 50 to 75% for the second.

ALVFELHYV and ALATHILSL fall in the same range of peptide exchange yield: 50 to 75% for the first, 50 to 75% for the second.

YLGPVSPSL and AVLQAVTAV fall in the same range of peptide exchange yield: 50 to 75% for the first, 50 to 75% for the second.

LLSTLHLLV and VTLEFPQLIRV fall in the same range of peptide exchange yield: 50 to 75% for the first, 50 to 75% for the second.

First: ILLNEDDLVTI
Second: FIAPTGHSL
The peptide exchange yield of the first is higher: 50 to 75% for the first, 20 to 50% for the second.

SLITPLQAV and ALLDQLHTLL cannot be ordered by peptide exchange yield: 50 to 75% for the first, no less than 75% for the second.

ILEENIPVL and QVIPQLQTV fall in the same range of peptide exchange yield: 50 to 75% for the first, 50 to 75% for the second.

VLLPQETAEIHL and LLFPQIEGIKI cannot be ordered by peptide exchange yield: no less than 75% for the first, 50 to 75% for the second.

ALLQKLQQL and ALDIMIPMV fall in the same range of peptide exchange yield: 50 to 75% for the first, 50 to 75% for the second.

LLVDVEPKV and RLLEFELAQL fall in the same range of peptide exchange yield: 50 to 75% for the first, 50 to 75% for the second.

FILPSSLYL and TIAPVTVAV cannot be ordered by peptide exchange yield: 50 to 75% for the first, no less than 75% for the second.

GLAESTGLLAV and VLAFLVHEL cannot be ordered by peptide exchange yield: 50 to 75% for the first, no less than 75% for the second.

First: LAIVPVNTL
Second: VLIKWFPEV
The peptide exchange yield of the first is lower: 10 to 20% for the first, no less than 75% for the second.

ELMHGVAGV and FLWEEKFNSL cannot be ordered by peptide exchange yield: 50 to 75% for the first, no less than 75% for the second.

ILYGTQFVL and YLYQEQYFI fall in the same range of peptide exchange yield: 50 to 75% for the first, 50 to 75% for the second.

FLVEPQEDTRL and KLLEEICNL cannot be ordered by peptide exchange yield: 50 to 75% for the first, no less than 75% for the second.

AAALIIHHV and VMIQHVENL fall in the same range of peptide exchange yield: 50 to 75% for the first, 50 to 75% for the second.

ILQDLTFVHL and MLLEHGITL fall in the same range of peptide exchange yield: 50 to 75% for the first, 50 to 75% for the second.

ILEEQPMDMLL and LMADLEGLHL fall in the same range of peptide exchange yield: 50 to 75% for the first, 50 to 75% for the second.

LLYNSTDPTL and TLENGVPCV fall in the same range of peptide exchange yield: 50 to 75% for the first, 50 to 75% for the second.

YLPYIFPNI and LMKDCEAEV fall in the same range of peptide exchange yield: 50 to 75% for the first, 50 to 75% for the second.

YMAVTTQEV and VLMDGSVKL cannot be ordered by peptide exchange yield: no less than 75% for the first, no less than 75% for the second.

VLMWEIYSL and AASPIITLV fall in the same range of peptide exchange yield: 50 to 75% for the first, 50 to 75% for the second.

First: FIMDDPAGNSYL
Second: VIAELPPKV
The peptide exchange yield of the first is higher: 50 to 75% for the first, 20 to 50% for the second.

With VVAEELENV the peptide exchange yield was 20 to 50%.

— patent US20170165337A1 (IMMATICS BIOTECHNOLOGIES, published 2017)
